Experimental data published in the supplement of paper PMC6755084.

B1: F1*; the commonest letter at each place (parent)
chain: GAGACCGCAACTGAAAAGTTGTTATCACTTGTCGTAAGACACTTTGGATGGGTTGAAGTTCTGCACGTAGAAGCAAAAGGC
B2: F1*; a variant is named by its letters at N, in order (parent)
chain: GAGACCGCAACTGAAAAGTTGTTATCACTTGTCGNANNNNNNTTNGNNNGGNTNNNGTTCTGCACGTAGAAGCAAAAGGC
B3: F1*; a variant is named by its letters at N, in order (parent)
chain: GAGACCGCAACTGAAAAGTTGTTATCNNNNNNNNAANNNNNTTNGNNGGGTTGAAGTTCTGCACGTAGAAGCAAAAGGC

Variants of: B1
Experiment: fraction ligated after 30 min (ligated reads / total reads); higher = more ligase activity
Settings: with F1*sub RNA substrate (template-directed ligation), 42 °C
Method: (§1)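 Chip-synthesised pool of F1* ligase ribozyme variants (all single and double substitutions, single, double and triple deletions in the catalytic core and GAA bulge, plus designed variants) was transcribed with T7 and reacted as a pool with excess substrate F1*sub for 30 min at 42 C in 50 mM EPPS pH 8.5, 25 mM MgCl2. Ligated and unligated bands were separated by PAGE, barcoded by RT and deep sequenced; fraction ligated = ligated reads / total reads per variant, relative activity = FL / FL of wild type (0.826). Sequences are the DNA template of the ribozyme.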

| Variant | fraction ligated |
| --- | --- |
| T23G A57T | 0.812 |
| T23C G46C | 0.738 |
| T23C G46A | 0.8 |
| T23C G46T | 0.614 |
| T23C T43A | 0.815 |
| T23C T43G | 0.745 |
| T23C T43C | 0.759 |
| T23C C42T | 0.804 |
| T23C C42G | 0.761 |
| T23C C42A | 0.762 |
| T23A C28G | 0.804 |
| T23A C28T | 0.753 |
| T23A C28A | 0.787 |
| T23C A27C | 0.775 |
| T23C A27G | 0.781 |
| T23C A27T | 0.804 |
| T22C | 0.819 |
| T23G C40A | 0.873 |
| T23G C40G | 0.812 |
| T23G C40T | 0.864 |
| T23A T32C | 0.771 |
| T23A T32G | 0.829 |
| T23A T32A | 0.859 |

| Variant | fraction ligated |
| --- | --- |
| T23G A48T | 0.781 |
| T23G A48C | 0.74 |
| T23G A48G | 0.788 |
| T23A T29C | 0.797 |
| T23A T29A | 0.826 |
| T23A T29G | 0.82 |
| T23C T35G | 0.83 |
| T23C T35C | 0.818 |
| T23C T35A | 0.845 |
| T23C C26G | 0.136 |
| T23C C26T | 0.779 |
| T23C C26A | 0.371 |
| T23A C33A | 0.855 |
| T23A C33T | 0.848 |
| T23A C33G | 0.838 |
| T23G A56G | 0.792 |
| T23G A56T | 0.772 |
| T23G A56C | 0.794 |
| T23G A24C A27G C28A C42G G47A | 0.812 |
| T23G G38A | 0.803 |
| T23C G50T | 0.782 |
| T23C G50C | 0.258 |
| T23C G50A | 0.632 |

| Variant | fraction ligated |
| --- | --- |
| T23A C42G | 0.822 |
| T23A C42A | 0.817 |
| T23A C42T | 0.817 |
| T23A C40A | 0.815 |
| T23A C40G | 0.838 |
| T23A C40T | 0.833 |
| T23A G47A | 0.783 |
| T23A G47T | 0.09 |
| T23A G47C | 0.0295 |
| T23A A27G | 0.794 |
| T23A A27C | 0.82 |
| T23A A27T | 0.794 |
| T23G C26A | 0.789 |
| T23G C26T | 0.82 |
| T23G C26G | 0.74 |
| T23A A48T | 0.68 |
| T23A A48G | 0.596 |
| T23A A48C | 0.727 |
| T23C T45G | 0.027 |
| T23C T45A | 0.266 |
| T23C T45C | 0.208 |

Variants of: B2
Experiment: as above
Settings: with F1*sub RNA substrate (template-directed ligation), 42 °C
Method: as §1

| Variant | fraction ligated |
| --- | --- |
| TAGACACTGATGTAG | 0.773 |
| TAGACACTGATGTAT | 0.762 |
| TAGACACTGATGTAA | 0.834 |
| TAGACACTGATGTAC | 0.56 |
| TAGACACTGAGTGAA | 0.168 |
| TGACACTGATGTGAA | 0.849 |
| TAGAACTGATGTGAA | 0.821 |
| TAGACACTGATGTCC | 0.0263 |
| TAGACACTGATGTCA | 0.792 |
| TAGACACTGATGTCG | 0.0205 |
| TAGACACTGATGTCT | 0.0184 |
| TAGACCTGATGTGAA | 0.839 |
| TAGACACTGATGTGA | 0.848 |
| TAGACACTGATGTGG | 0.352 |
| TAGACACTGATGTGT | 0.349 |
| TAGACACTGATGTGC | 0.802 |
| TAACACTGATGTGAA | 0.832 |
| TAGACACTGATTGAA | 0.703 |
| AGACACTGATGTGAA | 0.843 |
| TAGCACTGATGTGAA | 0.827 |
| TAGACACTATGTGAA | 0.782 |
| TAGACATGATGTGAA | 0.829 |
| TAGACACTGTGTGAA | 0.354 |
| TAGACACGATGTGAA | 0.799 |
| TAGACACTGATGTTG | 0.0257 |
| TAGACACTGATGTTA | 0.834 |
| TAGACACTGATGTTT | 0.0147 |
| TAGACACTGATGTTC | 0.0084 |

Variants of: B3
Experiment: as above
Settings: with F1*sub RNA substrate (template-directed ligation), 42 °C
Method: as §1

| Variant | fraction ligated |
| --- | --- |
| ACTTTCGTGACACGAT | 0.779 |
| ACTTGTCGGAACTGAT | 0.813 |
| ACTTGTCGGACACTAT | 0.769 |
| ACTTGTGTGACACTAT | 0.797 |
| ACTTGCGTGAACTGAT | 0.85 |
| ACTGTCGTGCACTGAT | 0.833 |
| ACTGTCGTGAACTGAT | 0.858 |
| ATTGTCGTGACACTAT | 0.776 |
| ATTGTCGTGACCTGAT | 0.79 |
| ACTTTCGTGACACTGA | 0.0557 |
| ACTTTCGTGACACTGT | 0.0695 |
| ACTTGCGTGCACTGAT | 0.856 |
| ACTTGTCTGACATGAT | 0.834 |
| ACTTTCGTGACCTGAT | 0.773 |
| ACTTGTCTGACACGAT | 0.786 |
| ACTTGTCGGACACTGA | 0.15 |
| ACTTGTCGGACACTGT | 0.236 |
| ACTTTCGTGACATGAT | 0.832 |
| ACTTGTCTACACTGAT | 0.817 |
| ATTGTCGTGCACTGAT | 0.777 |
| ATTGTCGTGAACTGAT | 0.838 |
| ATTGTCGTGACACTGA | 0.12 |
| ATTGTCGTGACACTGT | 0.583 |
| ACTGTCGTGACACTGT | 0.694 |

| Variant | fraction ligated |
| --- | --- |
| ACTGTCGTGACACTGA | 0.13 |
| ACTGTCGTGACACGAT | 0.812 |
| ACTGTCGTACACTGAT | 0.84 |
| ACTTGTCGGACCTGAT | 0.801 |
| ACTTGTCTGCACTGAT | 0.797 |
| CTTGTCGTGACACTAT | 0.779 |
| CTTGTCGTGACACGAT | 0.788 |
| ACTGTCGTGACATGAT | 0.846 |
| ACTTGCGTGACCTGAT | 0.815 |
| ACTTGTCTGAACTGAT | 0.787 |
| ACTTGCGTGACACTGA | 0.128 |
| ACTTGCGTGACACTGT | 0.143 |
| CTTGTCGTGACACTGA | 0.00758 |
| CTTGTCGTGACACTGT | 0.346 |
| ACTTGTCGGACACGAT | 0.775 |
| ACTTGTGTGACCTGAT | 0.844 |
| ACTTGCGTGACACGAT | 0.801 |
| ACTTGTCTGACCTGAT | 0.783 |
| ACTTTCGTACACTGAT | 0.811 |
| ACTTGTGTACACTGAT | 0.86 |
| ACTTGCGTGACACTAT | 0.802 |
| ACTTGTGTGCACTGAT | 0.875 |
| ACTGTCGTGACCTGAT | 0.849 |
| ACTTGCGTACACTGAT | 0.837 |

| Variant | fraction ligated |
| --- | --- |
| ACTTTCGTGCACTGAT | 0.8 |
| ACTTGCGTGACATGAT | 0.847 |
| ACTTGTCTGACACTAT | 0.775 |
| ACTTGTGTGACACGAT | 0.807 |
| ACTTGTCTGACACTGT | 0.285 |
| ACTTGTCTGACACTGA | 0.169 |
| ATTGTCGTACACTGAT | 0.799 |
| ACTTGTGTGACACTGA | 0.0628 |
| ACTTGTGTGACACTGT | 0.0697 |
| CTTGTCGTGCACTGAT | 0.776 |
| CTTGTCGTGACATGAT | 0.794 |
| CTTGTCGTGAACTGAT | 0.809 |
| CTTGTCGTACACTGAT | 0.772 |
| CTTGTCGTGACCTGAT | 0.786 |
| ACTTTCGTGACACTAT | 0.793 |
| ACTTGTGTGAACTGAT | 0.867 |
| ACTTGTCGACACTGAT | 0.822 |
| ATTGTCGTGACATGAT | 0.811 |
| ACTTGTCGGACATGAT | 0.831 |
| ACTTGTGTGACATGAT | 0.841 |
| ATTGTCGTGACACGAT | 0.806 |
| ACTTGTCGGCACTGAT | 0.78 |
| ACTTTCGTGAACTGAT | 0.873 |
| ACTGTCGTGACACTAT | 0.79 |
